Measurements as given in PMC8565331, “The RNA chaperone StpA enables fast RNA refolding by destabilization of mutually exclusive base pairs within competing secondary structure elements”.

Legend:
StpA-CTD [1] = molecular target: T1, StpA-CTD (Escherichia coli, UniProt P0ACG1 90-134); experiment: ITC; 5 C; n=1.84; 50 mM BisTris, 25 mM NaCl, pH 6.4; ITC at 5 and 25 C (40 uM RNA in cell, StpA-CTD 400/800/920 uM injected); NMR with 10% D2O, titration at 25 C; details: protein: recombinant; tags: none (His6-SUMOstar removed by SUMO protease); chain copies: 2
T1 chain: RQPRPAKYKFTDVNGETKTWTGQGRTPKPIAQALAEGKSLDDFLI

StpA-CTD [2] = molecular target: T1, StpA-CTD; experiment: ITC; 25 C; n=1.93; 50 mM BisTris, 25 mM NaCl, pH 6.4; ITC at 5 and 25 C (40 uM RNA in cell, StpA-CTD 400/800/920 uM injected); NMR with 10% D2O, titration at 25 C; details: protein: recombinant; tags: none (His6-SUMOstar removed by SUMO protease); chain copies: 2
StpA-CTD [3] = molecular target: T1, StpA-CTD; experiment: ITC; 25 C; n=1.80; 50 mM BisTris, 25 mM NaCl, pH 6.4; ITC at 5 and 25 C (40 uM RNA in cell, StpA-CTD 400/800/920 uM injected); NMR with 10% D2O, titration at 25 C; details: protein: recombinant; tags: none (His6-SUMOstar removed by SUMO protease); chain copies: 2; hairpin, locked 5'-fold
StpA-CTD [4] = molecular target: T1, StpA-CTD; experiment: ITC; 5 C; n=1.93; 50 mM BisTris, 25 mM NaCl, pH 6.4; ITC at 5 and 25 C (40 uM RNA in cell, StpA-CTD 400/800/920 uM injected); NMR with 10% D2O, titration at 25 C; details: protein: recombinant; tags: none (His6-SUMOstar removed by SUMO protease); chain copies: 2; hairpin, locked 5'-fold
StpA-CTD [5] = molecular target: T1, StpA-CTD; experiment: ITC; 25 C; n=2.33; 50 mM BisTris, 25 mM NaCl, pH 6.4; ITC at 5 and 25 C (40 uM RNA in cell, StpA-CTD 400/800/920 uM injected); NMR with 10% D2O, titration at 25 C; details: protein: recombinant; tags: none (His6-SUMOstar removed by SUMO protease); chain copies: 2; hairpin, locked 3'-fold
StpA-CTD [6] = molecular target: T1, StpA-CTD; experiment: ITC; 5 C; n=2.21; 50 mM BisTris, 25 mM NaCl, pH 6.4; ITC at 5 and 25 C (40 uM RNA in cell, StpA-CTD 400/800/920 uM injected); NMR with 10% D2O, titration at 25 C; details: protein: recombinant; tags: none (His6-SUMOstar removed by SUMO protease); chain copies: 2; hairpin, locked 3'-fold
StpA-CTD [7] = molecular target: T1, StpA-CTD; experiment: ITC; 25 C; n=1.69; 50 mM BisTris, 25 mM NaCl, pH 6.4; ITC at 5 and 25 C (40 uM RNA in cell, StpA-CTD 400/800/920 uM injected); NMR with 10% D2O, titration at 25 C; details: protein: recombinant; tags: none (His6-SUMOstar removed by SUMO protease); chain copies: 2; hairpin (5'-fold)
StpA-CTD [8] = molecular target: T1, StpA-CTD; experiment: ITC; 5 C; n=1.74; 50 mM BisTris, 25 mM NaCl, pH 6.4; ITC at 5 and 25 C (40 uM RNA in cell, StpA-CTD 400/800/920 uM injected); NMR with 10% D2O, titration at 25 C; details: protein: recombinant; tags: none (His6-SUMOstar removed by SUMO protease); chain copies: 2; hairpin (5'-fold)
StpA-CTD [9] = molecular target: T1, StpA-CTD; experiment: ITC; 25 C; n=1.74; 50 mM BisTris, 25 mM NaCl, pH 6.4; ITC at 5 and 25 C (40 uM RNA in cell, StpA-CTD 400/800/920 uM injected); NMR with 10% D2O, titration at 25 C; details: protein: recombinant; tags: none (His6-SUMOstar removed by SUMO protease); chain copies: 2; hairpin (3'-fold), 1 nt 5' overhang
StpA-CTD [10] = molecular target: T1, StpA-CTD; experiment: ITC; 5 C; n=1.78; 50 mM BisTris, 25 mM NaCl, pH 6.4; ITC at 5 and 25 C (40 uM RNA in cell, StpA-CTD 400/800/920 uM injected); NMR with 10% D2O, titration at 25 C; details: protein: recombinant; tags: none (His6-SUMOstar removed by SUMO protease); chain copies: 2; hairpin (3'-fold), 1 nt 5' overhang

## GACCGGAAGGUCCGCCUUCC (structured_RNA) [bistable 20mer RNA]
StpA-CTD [1]
  Kd: 9.4 ± 1.3 µM
StpA-CTD [2]
  Kd: 12.3 ± 1.7 µM

## GACCGGAAGGUCCGCCUUCC (structured_RNA, N1-methylguanosine at G6) [G6-m1G]
StpA-CTD [3]
  Kd: 17.5 ± 1.3 µM
StpA-CTD [4]
  Kd: 16.3 ± 0.7 µM

## GACCGGAAGGUCCGCCUUCC (structured_RNA, N6-dimethyladenosine at A2) [A2-DMA]
StpA-CTD [5]
  Kd: 13.6 ± 1.6 µM
StpA-CTD [6]
  Kd: 8.31 ± 0.8 µM

## GACCGGAAGGUCC (structured_RNA) [5'-HP]
StpA-CTD [7]
  Kd: 24.7 ± 0.6 µM
StpA-CTD [8]
  Kd: 13.3 ± 3.7 µM

## CGGAAGGUCCGCCUUCC (structured_RNA) [3'-HP]
StpA-CTD [9]
  Kd: 16.1 ± 2.6 µM
StpA-CTD [10]
  Kd: 11.3 ± 1.4 µM
